The results in this text go back to article PMC3817407.

Sequences and labels used below:
T1: ECF03_1198
T1 chain: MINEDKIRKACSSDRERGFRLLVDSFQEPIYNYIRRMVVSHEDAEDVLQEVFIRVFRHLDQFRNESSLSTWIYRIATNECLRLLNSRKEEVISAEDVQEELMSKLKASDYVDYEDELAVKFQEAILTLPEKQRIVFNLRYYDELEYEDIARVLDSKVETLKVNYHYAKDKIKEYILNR

T2: ECF03_1244
T2 chain: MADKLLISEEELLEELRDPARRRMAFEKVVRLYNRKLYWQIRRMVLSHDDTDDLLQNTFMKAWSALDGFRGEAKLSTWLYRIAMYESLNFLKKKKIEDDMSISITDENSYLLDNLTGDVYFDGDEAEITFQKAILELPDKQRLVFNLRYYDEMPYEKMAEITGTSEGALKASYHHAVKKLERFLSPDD

T3: ECF11_3726
T3 chain: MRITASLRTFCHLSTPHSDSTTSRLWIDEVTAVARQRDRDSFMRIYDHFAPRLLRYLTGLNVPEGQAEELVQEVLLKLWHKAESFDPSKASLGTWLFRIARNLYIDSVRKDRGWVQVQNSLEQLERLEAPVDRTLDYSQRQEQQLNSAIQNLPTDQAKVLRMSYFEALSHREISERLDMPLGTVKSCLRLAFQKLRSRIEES

T4: ECF14_3200
T4 chain: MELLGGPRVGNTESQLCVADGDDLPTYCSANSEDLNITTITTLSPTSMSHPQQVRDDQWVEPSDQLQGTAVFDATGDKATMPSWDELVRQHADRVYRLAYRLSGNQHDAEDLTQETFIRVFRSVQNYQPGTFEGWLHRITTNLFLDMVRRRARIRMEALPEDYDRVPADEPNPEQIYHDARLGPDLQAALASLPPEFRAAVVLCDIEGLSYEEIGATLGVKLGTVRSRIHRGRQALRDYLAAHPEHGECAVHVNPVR

T5: ECF16_3622
T5 chain: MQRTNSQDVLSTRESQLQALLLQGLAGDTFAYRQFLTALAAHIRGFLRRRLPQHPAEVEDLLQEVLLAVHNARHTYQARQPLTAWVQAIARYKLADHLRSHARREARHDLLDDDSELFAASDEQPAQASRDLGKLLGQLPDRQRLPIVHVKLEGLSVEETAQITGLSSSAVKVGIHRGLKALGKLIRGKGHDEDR

T6: ECF16_973
T6 chain: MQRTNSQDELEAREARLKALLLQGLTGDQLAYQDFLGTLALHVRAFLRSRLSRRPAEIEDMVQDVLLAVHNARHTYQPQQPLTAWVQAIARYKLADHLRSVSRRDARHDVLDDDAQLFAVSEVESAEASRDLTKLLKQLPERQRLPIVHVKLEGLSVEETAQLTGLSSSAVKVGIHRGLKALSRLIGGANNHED

T7: ECF27_4265
T7 chain: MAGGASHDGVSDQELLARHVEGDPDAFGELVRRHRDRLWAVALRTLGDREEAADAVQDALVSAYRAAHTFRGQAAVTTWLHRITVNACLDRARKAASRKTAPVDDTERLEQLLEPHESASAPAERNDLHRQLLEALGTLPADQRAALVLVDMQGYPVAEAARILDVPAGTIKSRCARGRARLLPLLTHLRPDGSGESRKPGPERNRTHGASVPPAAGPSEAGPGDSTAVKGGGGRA

T8: ECF28_1040
T8 chain: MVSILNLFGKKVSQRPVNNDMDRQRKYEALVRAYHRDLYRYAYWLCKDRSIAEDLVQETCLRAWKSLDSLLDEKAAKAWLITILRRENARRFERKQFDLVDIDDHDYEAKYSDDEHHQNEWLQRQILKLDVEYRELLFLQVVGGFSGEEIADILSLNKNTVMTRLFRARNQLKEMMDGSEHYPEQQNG

T9: ECF28_1088
T9 chain: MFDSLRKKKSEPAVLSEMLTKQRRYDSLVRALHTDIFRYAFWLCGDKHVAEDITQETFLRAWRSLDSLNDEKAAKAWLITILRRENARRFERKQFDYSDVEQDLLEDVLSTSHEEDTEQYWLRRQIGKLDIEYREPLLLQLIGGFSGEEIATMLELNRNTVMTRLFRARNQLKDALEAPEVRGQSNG

T10: ECF30_35
T10 chain: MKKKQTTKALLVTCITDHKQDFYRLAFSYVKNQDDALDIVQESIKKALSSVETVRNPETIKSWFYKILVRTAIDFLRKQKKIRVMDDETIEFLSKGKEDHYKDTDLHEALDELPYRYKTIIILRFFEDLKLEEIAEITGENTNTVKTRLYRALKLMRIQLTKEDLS

T11: ECF33_423
T11 chain: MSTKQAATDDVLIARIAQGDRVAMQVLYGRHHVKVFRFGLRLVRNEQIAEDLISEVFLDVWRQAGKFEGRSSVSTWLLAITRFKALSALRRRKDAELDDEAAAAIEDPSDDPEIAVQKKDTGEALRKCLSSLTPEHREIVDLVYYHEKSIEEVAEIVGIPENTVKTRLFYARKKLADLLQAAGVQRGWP

T12: ECF34_1384
T12 chain: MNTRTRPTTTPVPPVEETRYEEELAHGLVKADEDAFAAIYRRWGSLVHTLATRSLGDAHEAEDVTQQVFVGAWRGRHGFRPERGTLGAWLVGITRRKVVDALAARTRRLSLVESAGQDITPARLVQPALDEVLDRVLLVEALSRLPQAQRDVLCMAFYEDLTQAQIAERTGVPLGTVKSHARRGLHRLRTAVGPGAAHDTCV

T13: ECF37_2513
T13 chain: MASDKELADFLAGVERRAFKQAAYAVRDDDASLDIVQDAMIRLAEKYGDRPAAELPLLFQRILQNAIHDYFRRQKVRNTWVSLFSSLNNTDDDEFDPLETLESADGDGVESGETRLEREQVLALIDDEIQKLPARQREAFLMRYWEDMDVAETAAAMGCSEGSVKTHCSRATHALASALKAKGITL

T14: ECF38_1322
T14 chain: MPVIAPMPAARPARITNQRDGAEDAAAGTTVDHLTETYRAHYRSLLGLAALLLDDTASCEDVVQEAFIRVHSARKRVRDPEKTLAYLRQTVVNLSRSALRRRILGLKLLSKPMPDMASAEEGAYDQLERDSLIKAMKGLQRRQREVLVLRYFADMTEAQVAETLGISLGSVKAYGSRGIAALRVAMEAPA

B1: AS38_1322 (protein)
chain: MSDGNDARPDARDGHDPGSDARDGHDPGSHARDGHDPGAGPFDGHGPGSDAGDGDDAGPDARDGHGAPAGPAGREQRKHPHDTHDMHDTHDTHAGKGTVNHGPAAQGPDAPGADGPATDEAALRAMMQRAVREMEPSDGTLEHLRRAVPARRARKRQALVGAAAAALFLGTAVPALVHVSNATGAGADPSVAGNASQAQGGASQGKDPAGGQSGVAGTGDTPEDRDKADPKETPGGKEPGAATGAPPSGVPSASSPADVPACAPGSLGPAVASSAEPDSTGVVYGSFRVTNVSSDGCTVTGPGTVVTASLGAAEATRIGTARHAAGDAAAGLPDPSLETASLALAPGAAYEVQFAWVPSETCPTTGGTTGGGSGGPSPDPSPTADTTAAGGTSAGGGEAGPTTQLITEDGPAEGSVSVTYTPEGGSGSATATVSNACAGTVYWTGLLADSGSGA
B2: AS35_3582 (protein)
chain: MNPQKHSASVAEEQMLAHFRAHAPQQPAPALDQAILAAARRQAAHVEPARSWWRRWLEASRRPRWQAAFASLLGVALVLGLVSHNVLDDAERQARPEVAFSDVPLRDGVAGAAAAKRAMRAPAAPAPLSGEMSEPPALLASYASSGEAPQLMAEAAPPAPAALADRPPAQAAQQAKVQAALAGDFVAQARGKAVAVKPEVLDEALGAVLALREQGKTEQAATQLAELQKRFPGENLVERLERLATIAASARKRP
B3: AS33_375 (protein)
chain: MMALSKKMLEQEPSEIELLLPWHAAGTLNARDARRVEDALARDPELAKQYAAIRGEYEETIHLNESLGAPSARAMQKLFGAIDAEPARETGSLPLSARIATFFASLSPRTLAWSASLGAVALVLQAGIIGAVLMKTQPTTFQTASLSTSAPITRELGAAVAPARALVRFTPEARVADITALLDSYQASIIGDAKGGMFRLQFDKAMSQDELASLLGRMQREKFVNLAVAAP
B4: AS37_2513 (protein)
chain: MSSAPATKEEVDFALKVRRALDERAASLPDATTDRLAAARRAALARKKPDAAIVLVPALAGSAGTLELRPPGEPRKSLARRLARAWPLALLLAGLIGIAYWEDMQRTAELADIDAAMLSDNLPLTAYLDHGFNAYLSHTH
B5: AS33_423 (protein)
chain: MMAMSNTMPDPREPGDVEALLPWYAAGTLNARDARRVADALDRDPALARQYAVILEEYASTIELNESLGAPSSRAMQKLFAAIDAEPARAPGAGQGLGARFAGFFAGLSPKALAWSASVAGLALLLQAGLIGALLTWPHAAPVQTAAYQPQREVARAPASSPAPATVSPPAAAMADRAADAGKSTPPMVMAERSGGPVVRSLAPQSGPRVLVKFAPEARASEIAALLDQYNAVVVDSSRGGLFRLQFGTQSLSKQDQETLIGRLQKEPVVSVVLSAP

For the first test, the target named is T1, ECF03_1198.
As to B1, the fold repression worked out at 5.72.
For the molecule B2, the fold repression was 6.26.
Still for that read-out and setting: in the case of B3 it was 21.3; in that of B4, 4.01.
Turning to B5, the fold repression stood at 15.

The next test addresses T2, ECF03_1244.
Regarding B1, the fold repression was 4.75.
On the same count and under the same terms, in the case of B2 it was 4.18; in that of B3, 16.3; in that of B4, 3.44.
The molecule B5 came in with a fold repression of 13.5.

The next test has as its target T3, ECF11_3726.
Regarding B1, the fold repression is 11.2.
The molecule B2 came in with a fold repression of 18.8.
Consider B3, for which the fold repression stood at 34.4.
B4 registered a fold repression of 11.6.
Turning to B5, the fold repression amounted to 29.3.

For another test, the target named is T4, ECF14_3200.
As for B1, the fold repression came out at 8.3.
B2 gave a fold repression of 11.7.
On the same count and under the same terms, in the case of B3 it was 17.8.
Molecule B4 yielded a fold repression of 11.4.
Molecule B5 came in with a fold repression of 12.2.

Another test deals with T5, ECF16_3622.
The molecule B1 displayed a fold repression of 4.56.
Turning to B2, the fold repression was 6.44.
B3 had a fold repression of 22.6.
On the same count and under the same terms, in the case of B4 it was 5.36; in that of B5, 35.1.

The next test addresses T6, ECF16_973.
B1 returned a fold repression of 4.09.
The molecule B2 returned a fold repression of 3.39.
For the molecule B3, the fold repression is 9.87.
On the same count and under the same terms, as for B4, the figure is 3.54; as for B5, 14.6.

The next test concerns the target T7, ECF27_4265.
Take B1: the fold repression stood at 2.33.
Take B2: the fold repression is 2.28.
Same read-out and setting: in the case of B3 it was 5.34; in that of B4, 2.71.
The same measure, in the same setting: in the case of B5 it was 5.38.

The target in another test is T8, ECF28_1040.
B1 had a fold repression of 2.92.
For the molecule B2, the fold repression is 2.76.
Same read-out and setting: in the case of B3 it was 3.33; in that of B4, 2.67.
Same read-out and setting: in the case of B5 it was 2.67.

A further test deals with T9, ECF28_1088.
Molecule B1 returned a fold repression of 3.19.
Same read-out and setting: as for B2, the figure is 3.76.
Still for that read-out and setting: in the case of B3 it was 3.72.
Still for that read-out and setting: as for B4, the figure is 3.31; as for B5, 3.17.

The target in the next test is T10, ECF30_35.
For the molecule B1, the fold repression amounted to 3.08.
In turn, B2 gave a fold repression of 2.03.
On to B3, for which the fold repression was found to be 4.68.
The same measure, in the same setting: in the case of B4 it was 3.08.
Same read-out and setting: in the case of B5 it was 3.09.

The target in a further test is T11, ECF33_423.
B1: the fold repression came out at 3.68.
The same measure, in the same setting: as for B2, the figure is 3.76.
B3 returned a fold repression of 113.
B4 showed a fold repression of 3.3.
In turn, B5 showed a fold repression of 84.3.

Another test deals with T12, ECF34_1384.
With B1, the fold repression was 6.19.
On the same count and under the same terms, in the case of B2 it was 9.31; in that of B3, 12.2; in that of B4, 6.47.
On to B5, for which the fold repression was 8.97.

The target in the next test is T13, ECF37_2513.
Take B1: the fold repression was 6.38.
Still for that read-out and setting: in the case of B2 it was 8.97; in that of B3, 13.5.
With B4, the fold repression came out at 13.5.
Consider B5, for which the fold repression is 10.

For the next test, the target named is T14, ECF38_1322.
Turning to B1, the fold repression is 54.2.
Same read-out and setting: as for B2, the figure is 3.42; as for B3, 7.66; as for B4, 2.73.
As to B5, the fold repression amounted to 5.66.
